This is an account of results in PMC9940634.

The target of the data set is T1, HIC2 ZF2-5 (Homo sapiens, UniProt Q96JB3 503-615).
T1 sequence: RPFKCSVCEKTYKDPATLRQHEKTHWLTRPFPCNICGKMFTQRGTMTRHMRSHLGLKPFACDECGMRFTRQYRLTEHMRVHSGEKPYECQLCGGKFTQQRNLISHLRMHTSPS
Briefly: X-ray crystallography.

B1: +55 enhancer HIC2 motif-2/GATA 16-mer (dsDNA)
DNA 1: AGATAATGCCAACAGT
DNA 2: ACTGTTGGCATTATCT
Take B1: the binding result is “binds”.
